Read-outs that look alike come from different tables or passages of the source.
Columns and labels:
[1] = molecular target: T1, SARS-CoV-2 wild type spike protein (on reporter virus particles) (SARS-CoV-2, UniProt P0DTC2 14-1273); assay: cell-based or functional assay
[2] = molecular target: T1, SARS-CoV-2 wild type spike protein (on …); assay: cell-based or functional assay; remark: listed apart in the source
SARS-CoV1 Spike [change] [3] = molecular target: T2, SARS-CoV1 Spike [change] (SARS-CoV-1, UniProt P59594 14-667); assay: Octet BLI, IgG, monovalent
MERS-CoV [change] = molecular target: T3, MERS-CoV [change] (MERS-CoV, UniProt K9N5Q8 18-725); assay: Octet BLI, IgG, monovalent
T3 sequence: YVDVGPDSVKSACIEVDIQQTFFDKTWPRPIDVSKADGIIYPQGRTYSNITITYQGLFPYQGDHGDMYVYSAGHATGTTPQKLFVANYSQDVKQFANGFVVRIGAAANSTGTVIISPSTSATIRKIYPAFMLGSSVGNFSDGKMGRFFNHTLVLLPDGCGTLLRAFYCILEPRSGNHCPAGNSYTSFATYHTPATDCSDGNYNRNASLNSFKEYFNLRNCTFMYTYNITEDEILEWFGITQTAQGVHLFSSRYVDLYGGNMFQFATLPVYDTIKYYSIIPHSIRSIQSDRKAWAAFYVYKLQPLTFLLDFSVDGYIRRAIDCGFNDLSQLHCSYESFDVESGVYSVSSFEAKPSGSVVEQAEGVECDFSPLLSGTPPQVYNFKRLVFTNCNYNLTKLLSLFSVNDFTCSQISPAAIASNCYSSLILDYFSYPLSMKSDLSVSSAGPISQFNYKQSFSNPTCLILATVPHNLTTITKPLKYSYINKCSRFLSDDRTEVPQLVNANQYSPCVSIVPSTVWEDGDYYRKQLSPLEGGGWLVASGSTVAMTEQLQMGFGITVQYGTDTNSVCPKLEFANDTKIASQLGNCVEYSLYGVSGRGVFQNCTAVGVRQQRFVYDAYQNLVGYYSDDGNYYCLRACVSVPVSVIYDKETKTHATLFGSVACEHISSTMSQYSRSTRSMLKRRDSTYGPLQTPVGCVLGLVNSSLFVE

SARS-CoV-2 Spike S1-His [4] = molecular target: T4, SARS-CoV-2 Spike S1-His (SARS-CoV-2, UniProt P0DTC2 16-685); assay: Octet BLI, IgG, monovalent
SARS-CoV-2 S Trimer = SARS-CoV-2 S Trimer (SARS-CoV-2, UniProt P0DTC2 16-1213); assay: Octet BLI, IgG, avid
SARS-CoV1 Spike [change] [5] = molecular target: T2, SARS-CoV1 Spike [change]; assay: Octet BLI, IgG, monovalent; remark: listed apart in the source
SARS-CoV-2 Spike S1-His [6] = molecular target: T4, SARS-CoV-2 Spike S1-His; assay: Octet BLI, IgG, monovalent; remark: listed apart in the source
[7] = molecular target: T1, SARS-CoV-2 wild type spike protein (on …); assay: cell-based or functional assay; remark: listed apart in the source

B1: A-1 (antibody, V domains shown)
VH: EVQLVESGGGVVQPGGSLRLSCAASGFAFSTYWMHWVRQAPGKGLVWVSRINGDGSGTNYADSVKGRFTISRDNAKSTLYLQMNSLRTEDTAVYYCTRTAGRGAYDFGRFDPWGQGTLVTVSS
VL: DIVLTQTPLSLPVTPGEPASISCRSSQSLLHSNGYNYLDWYLQKAGQSPQLLVFLGSNRASGVPDRFSGSASGTDFTLKISRVEAEDVGVYYCMQALQIPITFGQGTRLEIK
[1]
  PsV Neut Assay IC50: 0.116 nM
[2]
  PSV IC50: 0.017 µg/mL
SARS-CoV1 Spike [change] [3]
  binding result: no binding
MERS-CoV [change]
  binding result: no binding
SARS-CoV-2 Spike S1-His [4]
  Kd: 9.6 nM
SARS-CoV-2 S Trimer
  Kd: 0.865 nM

B2: A-2 (antibody, V domains shown)
VH: EVQLVESGGGLIQPGGSLRLSCAASGFTVSSNYMSWVRQAPGKGLEWVSIIYSGGSTYYADSVKGRFTISRDNSKNTLYLQMNSLRAEDTAVYYCARAPSGEYGDPIYYWGQGTLVTVSS
VL: QSVLTQPPSASASLGASVKLTCTLSSGHSTYTIAWHQQQPEKGPRYLMKLNSDGSHSKGDGIPDRFSGSSSGAERYLTISSLQSEDEADYYCQTWGTGNHWVFGGGTKLTVL
[1]
  PsV Neut Assay IC50: 0.169 nM
[2]
  PSV IC50: 0.025 µg/mL
SARS-CoV1 Spike [change] [3]
  binding result: no binding
MERS-CoV [change]
  binding result: no binding
SARS-CoV-2 Spike S1-His [4]
  Kd: 14.5 nM
SARS-CoV-2 S Trimer
  Kd: 1.14 nM

B3: A-24.1 (antibody, V domains shown)
VH: EVQLVESGGGLVKPGRSLRLSCAASGFTFADYTMSWFRQAPGKGLEWVGFIRSEPYGGTTEYAASVKGRFTISRDDSKSIAYLQMNSLKTEDTAVYYCSRDPWYCSGGDCYAVTGSWFDPWGQGTLVTVSS
VL: DIQMTQSPSSLSASVGDRVTITCQASQDIKKYLNWYQQKPGKAPKLLIYDVSNLETGVPSRFSGSGSGTDFTFTISSLQPEDVAIYYCQQYDNLPQTFGQGTKVEIK
SARS-CoV1 Spike [change] [5]
  binding result: no binding
SARS-CoV-2 Spike S1-His [6]
  Kd: 0.999 nM
[7]
  WT PsV IC50: 0.0657 nM

B4: A-24.3 (antibody, V domains shown)
VH: EVQLVESGGGLVKPGRSLRLSCAASGFTFADYTMSWFRQAPGKGLEWVGFIRSEPYGGTTEYAASVKGRFTISRDDSKSIAYLQMNSLKTEDTAVYYCSRDPWYCSGGDCYAVTGSWFDPWGQGTLVTVSS
VL: DIQMTQSPSSLSASVGDRVTITCQASRDIKKYLNWYQQKPGKAPKLLIYDVSNLETGVPSRFSGSGSGTDFTFTISSLQPEDVAIYYCQQYDQLPQTFGQGTKVEIE
SARS-CoV1 Spike [change] [5]
  binding result: no binding
SARS-CoV-2 Spike S1-His [6]
  Kd: 0.479 nM
[7]
  WT PsV IC50: 0.0454 nM

B5: A-24.2 (antibody, V domains shown)
VH: EVQLVESGGGLVKPGRSLRLSCAASGFTFADYTMSWFRQAPGKGLEWVGFIRSEPYGGTTEYAASVKGRFTISRDDSKSIAYLQMNSLKTEDTAVYYCSRDPWYCSGGDCYAVTGSWFDPWGQGTLVTVSS
VL: DIQMTQSPSSLSASVGDRVTITCQASQDIKQYLNWYQQKPGKAPKLLIYDQSNLETGVPSRFSGSGSGTDFTFTISSLQPEDVAIYYCQQYWNLPQTFGQGTKVEIK
SARS-CoV1 Spike [change] [5]
  binding result: no binding
SARS-CoV-2 Spike S1-His [6]
  Kd: 0.289 nM
[7]
  WT PsV IC50: 0.116 nM

B6: A-24 (antibody, V domains shown)
VH: EVQLVESGGGLVKPGRSLRLSCAASGFTFADYAMSWFRQAPGKGLEWVGFIRSKPYGGTTEYAASVKGRFTISRDDSKSIAYLQMNSLKTEDTAVYYCSRDPWYCSGGDCYAVTGSWFDPWGQGTLVTVSS
VL: DIQMTQSPSSLSASVGDRVTITCQASQDIKKYLNWYQQKPGKAPKLLIYDVSNLETGVPSRFSGSGSGTDFTFTISSLQPEDVAIYYCQQYDNLPQTFGQGTKVEIK
SARS-CoV1 Spike [change] [5]
  binding result: no binding
SARS-CoV-2 Spike S1-His [6]
  Kd: 5.36 nM
[7]
  WT PsV IC50: 0.039 nM

B7: A-23 (antibody, V domains shown)
VH: EVQLVESGGGLVQPGRSLRLSCAASGFTFDDYAMHWVRQAPGKGLEWVSGISWNSGTIGYADSVKGRFIISRDNAKNSLYLQMNSLRGEDMALYYCGKDRKREDPSLGGMDVWGQGTTVTVSS
VL: SYVLTQPPSVSVAPGQTARITCGGNNIGSKSVHWYQQKPGQAPVLVVYDDTDRPSGIPERFSGSNSGNTATLTISRVEAGDEADYYCQVWDSSSDHYVFGTGTKVTVL
SARS-CoV1 Spike [change] [5]
  binding result: no binding
SARS-CoV-2 Spike S1-His [6]
  Kd: 2.11 nM
[7]
  WT PsV IC50: 0.539 nM

B8: A-23.1 (antibody, V domains shown)
VH: EVQLVESGGGLVQPGRSLRLSCAASGFTIDDYAMHWVRQAPGKGLEWVSGISWNGGTIGYADSVKGRFIISRDNAKNSLYLQMNSLRGEDMALYYCGKDRKREDPSLGGMDVWGQGTTVTVSS
VL: SYVLTQPPSVSVAPGQTARITCLGNNIGSKSVHWYQQKPGQAPVLVVYDDTDRPSGIPERFSGSNSGNTATLTISRVEAGDEADYYCQVWDSESDHYVFGTGTKVTVL
SARS-CoV1 Spike [change] [5]
  binding result: no binding
SARS-CoV-2 Spike S1-His [6]
  Kd: 0.829 nM
[7]
  WT PsV IC50: 0.423 nM

B9: A-23.2 (antibody, V domains shown)
VH: EVQLVESGGGLVQPGRSLRLSCAASGFTFDDYAMHWVRQAPGKGLEWVSGTSWNSGTIGYADSVKGRFIISRDNAKNSLYLQMNSLRGEDMALYYCVKDRKREDPSLGGMDVWGQGTTVTVSS
VL: SYVLTQPPSVSVAPGQTARITCGGNNIGSKSVHWYQQKPGQAPVLVVYDDTDRPSGIPERFSGSNSGNTATLTISRVEAGDEADYYCQVWDVSSDSYVFGTGTKVTVL
SARS-CoV1 Spike [change] [5]
  binding result: no binding
SARS-CoV-2 Spike S1-His [6]
  Kd: 0.454 nM
[7]
  WT PsV IC50: 0.416 nM

B10: A-10 (antibody, V domains shown)
VH: QVQLVQSGGGVVQPGRSLRLSCAASGFTFSSYGMHWVRQAPGKGLEWVAVISYDGSNKYYTDSVKGRFTISRDNSKNTLYLQMNSLRAEDTAVYYCAKDLPREVYYDILTGYDNPYYYYGMDVWGQGTTVTVSS
VL: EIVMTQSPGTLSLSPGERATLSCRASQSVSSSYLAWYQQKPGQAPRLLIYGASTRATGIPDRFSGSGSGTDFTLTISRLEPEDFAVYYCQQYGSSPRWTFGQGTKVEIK
[1]
  PsV Neut Assay IC50: 1.29 nM
[2]
  PSV IC50: 0.194 µg/mL
SARS-CoV1 Spike [change] [3]
  binding result: no binding
MERS-CoV [change]
  binding result: no binding
SARS-CoV-2 Spike S1-His [4]
  Kd: 9.59 nM
SARS-CoV-2 S Trimer
  Kd: 0.854 nM

B11: A-21 (antibody, V domains shown)
VH: EVQLVESGGGLVQPGGSLRLSCAASGFTFSRYWMHWVRQAPGKGLVWVSRINSDGSSTTYADSVKGRFTISRDNAKNTLYLQMNSLRAEDTAVYYCARELYYYDSRGAEEGEGWFDPWGQGTLVTVSS
VL: QSVLTQPPSVSGAPGQRVTISCTGISSNIGAGYDVHWYQQLPGTAPKLLIYGNSNRPSGVPDRFSASKSGTSAPLAITGLQAEDEADYYCQSSDRSLSGSVFGTGTKVTVL
SARS-CoV1 Spike [change] [5]
  Kd: 9.03 nM
SARS-CoV-2 Spike S1-His [6]
  Kd: 0.529 nM
[7]
  WT PsV IC50: 2.78 nM

B12: A-21.3 (antibody, V domains shown)
VH: EVQLVESGGGLVQPGGSLRLSCAASGFTFRRYWMHWVRQAPGKGLEWVSRINSDGSSTTYADSVEGRFTISRDNAKNTLYLQMNSLRAEDTAVYYCARELYYYDRRGAEEGEGWFDPWGQGTLVTVSS
VL: QSVLTQPPSVSGAPGQRVTISCTGISSNIGAEYDVHWYQQLPGTAPKLLIYGNSNRPRGVPDRFSASKSGTSAPLAITGLQAEDEADYYCQVSDRYLSGSVFGTGTKVTVL
SARS-CoV1 Spike [change] [5]
  Kd: 0.893 nM
SARS-CoV-2 Spike S1-His [6]
  Kd: 0.241 nM
[7]
  WT PsV IC50: 0.946 nM

B13: A-21.2 (antibody, V domains shown)
VH: EVQLVESGGGLVQPGGSLRLSCAASGFTFSRYWMHWVRQAPGKGLVWVSRINSDGSSTTYADSVKGRFTISRDNAKNTLYLQMNSLRAEDTAVYYCARELYYYDSRGAEEGEGWFDPWGQGTLVTVSS
VL: QSVLTQPPSVSGAPGQRVTISCTGISSNIGAQYDVHWYQQLPGTAPKLLIYGNSNRPRGVPDRFSASKSGTSAPLAITGLQAEDEADYYCQSSDRSVSGSVFGTGTKVTVL
SARS-CoV1 Spike [change] [5]
  Kd: 7.93 nM
SARS-CoV-2 Spike S1-His [6]
  Kd: 0.195 nM
[7]
  WT PsV IC50: 2.63 nM

B14: A-22.1 (antibody, V domains shown)
VH: not shown
VL: EIVLTQSPGTLSLSPGERATLSCRASQTVRSDLAWYQQKPGQAPRLLIYGASTRATDISDRFSGSGSGTEFTLTISSLQSEDFAVYYCQQYYEWPPHSDSFGGGTKVEIK
SARS-CoV1 Spike [change] [5]
  Kd: 3.68 nM
SARS-CoV-2 Spike S1-His [6]
  Kd: 0.278 nM
[7]
  WT PsV IC50: 14.3 nM

B15: A-22.3 (antibody, V domains shown)
VH: not shown
VL: EIVLTQSPGTLSLSPGERATLSCRASQTVRSDLAWYQQKPGQAPRLLIYGGSTRATDISDRFSGSGSGTEFTLTISSLQSEDFAVYYCQQYYEWPPHSDSFGGGTKVEIK
SARS-CoV1 Spike [change] [5]
  Kd: 4.77 nM
SARS-CoV-2 Spike S1-His [6]
  Kd: 0.245 nM
[7]
  WT PsV IC50: 7.1 nM

B16: A-22.2 (antibody, V domains shown)
VH: not shown
VL: EIVLTQSPGTLSLSPGERATLSCSASQTVRSDLAWYQQKPGQAPRLLIYGGSTRATDISDRFSGSGSGTEFTLTISSLQSEDFAVYYCQQYYEWPPHSDSFGGGTKVEIK
SARS-CoV1 Spike [change] [5]
  Kd: 10.1 nM
SARS-CoV-2 Spike S1-His [6]
  Kd: 0.254 nM
[7]
  WT PsV IC50: 3.3 nM

Reference: US20260217797A1 (Takeda / Millennium, published 2026)
